The record followed here is patent US20180371053A1 (UNIVERSITY OF NORTH CAROLINA AT CHAPEL HILL, published 2018).

One test has as its target T1, human 4Ig-B7-H3 (human, UniProt Q5ZPR3 29-534).
T1 construct: whole, on cells; also called 4Ig-hB7-H3; Raji-4IgB7-H3
T1 sequence (looked up): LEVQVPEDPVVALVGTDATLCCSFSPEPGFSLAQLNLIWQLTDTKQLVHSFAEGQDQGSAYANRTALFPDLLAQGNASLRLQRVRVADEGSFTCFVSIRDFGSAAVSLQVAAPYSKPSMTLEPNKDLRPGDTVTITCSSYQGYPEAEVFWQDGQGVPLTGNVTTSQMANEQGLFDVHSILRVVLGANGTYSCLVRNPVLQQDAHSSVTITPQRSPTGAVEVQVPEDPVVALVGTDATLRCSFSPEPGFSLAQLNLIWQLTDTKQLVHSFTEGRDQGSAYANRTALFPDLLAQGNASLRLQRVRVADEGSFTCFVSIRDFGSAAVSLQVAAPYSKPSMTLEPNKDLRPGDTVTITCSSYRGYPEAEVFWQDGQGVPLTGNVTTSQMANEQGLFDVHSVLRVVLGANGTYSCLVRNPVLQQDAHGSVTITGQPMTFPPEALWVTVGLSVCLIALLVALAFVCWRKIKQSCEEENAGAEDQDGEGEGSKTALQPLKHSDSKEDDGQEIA
Description: flow cytometry on Raji clones expressing 4Ig-hB7-H3. (Flow cytometry measures light scatter and fluorescence of single cells or particles in a stream.)

The next test addresses T2, murine B7-H3 (mouse, UniProt Q8VE98 29-316).
T2 construct: whole, on cells; also called mB7-H3; mouse B7-H3
T2 sequence (looked up): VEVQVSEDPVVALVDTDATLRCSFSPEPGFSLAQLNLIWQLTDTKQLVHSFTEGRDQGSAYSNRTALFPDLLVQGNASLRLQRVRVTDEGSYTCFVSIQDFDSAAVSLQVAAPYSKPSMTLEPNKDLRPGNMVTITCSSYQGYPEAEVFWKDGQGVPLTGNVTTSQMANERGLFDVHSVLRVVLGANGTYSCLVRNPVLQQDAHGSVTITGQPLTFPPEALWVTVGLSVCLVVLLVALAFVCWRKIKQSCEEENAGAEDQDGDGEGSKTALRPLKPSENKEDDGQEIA
The test can be described thus: flow cytometry on Raji clones expressing mB7-H3.

B1: anti-B7-H3 mAb 376.96 (antibody, V domains shown)
VH: EVQLVESGGGLVKPGGSLKLSCEASRFTFSSYAMSWVRQTPEKRLEWVAAISGGGRYTYYPDSMKGRFTISRDNAKNFLYLQMSSLRSEDTAMYYCARHYDGYLDYWGQGTTLTVSS
VL: DIVMTQSHKFMSTSIGARVSITCKASQDVRTAVAWYQQKPGQSPKLLIYSASYRYTGVPDRFTGSGSGTDFTFTISSVQAEDLAVYYCQQHYGTPPWTFGGGTKLEIK
notes: The residue ranges are my derivation
As to B1, the binding result with human 4Ig-B7-H3 and with murine B7-H3 was “binds” each time.
